# Ends that are not written are not given here.
# How the values were obtained:
# [1] = tested on: glioblastoma U87MG xenograft mouse model; conditions: cited from earlier work
# Description: (§1) Wang et al. described a similar radiolabeling approach with copper-64 to imag ...
# [2] = tested on: MDA-MB-435 breast cancer xenograft tumor model; conditions: copper-64 labeled; 4 h; cited from earlier work
# Description: as §1
# BxPC-3 cells = experiment: In vitro cell blocking assay, BxPC-3; type: cell-based; conditions: 1 h, 37 °C, n = 3
# Protocol: Cell binding and internalization assay. Binding and internalization were determined as previously described. In brief, bovine serum albumin (BSA, 0.5% w/v in PBS) was used to pretreat the assay tubes to prevent non-specific binding. Aliquots of [64Cu]2 or [ 64Cu]PDC-1 (≤1 μL, 7.4-18.5 KBq in 50 μL PBS, pH = 7.4) were added to a cell suspension (3.75 × 10 6 cells in 50 μL serum free medium), incubated for 1 h at 37 °C, and gently agitated every 5 minutes (n = 3/cell line/compound). The cells were pelleted by centrifugation at 200×g for 3 min and the supernatant collected. The cell pellet was washed with 0.5 mL serum free medium and the wash medium combined with the original supernatant. […] The fraction of bound radioactivity was determined with a γ-counter (by measuring cell pellet and combined supernatants). To determine the fraction of internalized radioactivity, the cells were re-pelleted, and re-suspended in acidic wash buffer (0.2 M sodium acetate, 0.5 M sodium chloride, pH = 2.5, 300 μL, 4 °C, 5 min) to release surface bound activity, followed by a wash with PBS (300 μL). The internalized fraction was determined with a γ-counter (cell pellet vs. radioactivity released into supernatant). A Wizard 1470 or Wizard 2 2470 automatic γ-counter (Perkin-Elmer, Waltham, MA) was used to measure radioactivity samples. […]
# Figure S3. […] Data are expressed as mean ± SD. […]
Compound,"Liver accumulation ([1]; 20 h, model not stated)","Tumor uptake ([1]; copper-64 labeled, 4 h)",Tumor accumulation [2],Concentration of non-radioactive DOTA-PDC-1 required to block [64Cu]PDC-1 binding (BxPC-3 cells)
CDCRGDCFC (also: bicyclic or more (positions not given here)) [TNF-PDC],16.22 ± 1.46 % ID/g,8.11 ± 0.88 % ID/g,3.94 ± 0.48 % ID/g,
CC[C@H](C)[C@@H]([C@@H](CC(=O)N1CCC[C@H]1[C@H](OC)[C@@H](C)C(=O)N[C@H](C)[C@@H](O)c1ccccc1)OC)N(C)C(=O)[C@@H](NC(=O)[C@H](C(C)C)N(C)C(=O)OCc1ccc(NC(=O)[C@H](CCCNC(N)=O)NC(=O)[C@@H](NC(=O)CCOCCOCCNC(=O)CCN2C(=O)CC(SC[C@H](NC(=O)CN3CCN(CC(=O)O)CCN(CC(=O)O)CCN(CC(=O)O)CC3)C(=O)NCCOCCOCCOCCOCCOCCOCCOCCOCCOCCOCCOCCOCCOCCOCCOCCOCCOCCOCCOCCOCCOCCOCCOCCOCCOCCOCCOCCOCCC(=O)N[C@@H](CC(N)=O)C(=O)N[C@@H](C)C(=O)N[C@H](C(=O)N3CCC[C@H]3C(=O)N[C@@H](CC(N)=O)C(=O)N[C@@H](CC(C)C)C(=O)N[C@@H](CCCNC(=N)N)C(=O)NCC(=O)N[C@@H](CC(=O)O)C(=O)N[C@@H](CC(C)C)C(=O)N[C@@H](CCC(N)=O)C(=O)N[C@H](C(=O)N[C@@H](CC(C)C)C(=O)N[C@@H](C)C(=O)N[C@@H](CCC(N)=O)C(=O)N[C@@H](CCCNC(=N)N)C(=O)N[C@H](C(=O)N[C@@H](C)C(=O)N[C@@H](CCCNC(=N)N)C(=O)N[C@H](C(=O)NCCOCCOCCOCCOCCOCCOCCOCCOCCOCCOCCOCCOCCOCCOCCOCCOCCOCCOCCOCCOCCOCCOCCOCCOCCOCCOCCOCCOCCC(N)=O)[C@@H](C)O)C(C)C)C(C)C)C(C)C)C2=O)C(C)C)cc1)C(C)C (stereo partly shown) [DOTA-PDC-1],,,,80 to 160 nM
